Measurements: paper PMC7567106, “Generalized enzymatic mechanism of catalysis by tetrameric L-asparaginases from mesophilic bacteria” (Scientific Reports, 2020)
One block for each compound: values may come before it.

What was measured:
[1] = target: T1, EcAII (type II L-asparaginase from E. coli) (Escherichia coli, UniProt P00805); assay: Q-TOF LC/MS of substrate, product and hydroxamate (data not shown); format: biochemical; details: 25 mM HEPES pH 7.7; 8 mM substrate, 27.8 nM enzyme, 0.4 M NH2OH
T1 construct: gene ansB; periplasmic enzyme, homotetramer; preparation not described here
T1 sequence (P00805 23-348): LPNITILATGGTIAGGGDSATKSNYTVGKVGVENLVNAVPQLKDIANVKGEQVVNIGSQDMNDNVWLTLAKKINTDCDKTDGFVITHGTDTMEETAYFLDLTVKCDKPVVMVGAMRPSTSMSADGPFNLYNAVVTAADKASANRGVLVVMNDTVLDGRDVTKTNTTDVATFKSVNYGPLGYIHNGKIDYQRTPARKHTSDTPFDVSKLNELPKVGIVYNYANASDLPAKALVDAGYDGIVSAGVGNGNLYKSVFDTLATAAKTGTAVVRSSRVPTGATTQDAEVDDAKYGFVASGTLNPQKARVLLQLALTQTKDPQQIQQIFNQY

[2] = target: L-glutaminase-asparaginase from Pseudomonas 7A, K173M variant (Pseudomonas 7A) (UniProt Q88K39); assay: crystal structure; co-crystallised with small ligands, hanging drop; protein 12.5-13.5 mg/ml in 50 mM HEPES pH 7.0, 200 mM NaCl; four protomers in the asymmetric unit as two intimate dimers (A,B) and (C,D)
[3] = target: L-glutaminase-asparaginase from Pseudomonas 7A, wild type (Pseudomonas 7A) (UniProt Q88K39); assay: as above

Compound: NC(=O)C[C@H](N)C(=O)O [L-Asn]
Q-TOF LC/MS of substrate, product and hydroxamate (data not shown) [1]: EcAII(wt) with L-Asn were monitored (not shown)

stoichiometry N [2]: 4
Compound: L-glutaminase-asparaginase from Pseudomonas 7A, K173M variant (from UniProt Q88K39 26-362) (enzyme)

stoichiometry N [3]: 4
Compound: L-glutaminase-asparaginase from Pseudomonas 7A, wild type (from UniProt Q88K39 26-362) (enzyme)
